According to the supplement of paper PMC9170038:

Test system: MS2 coat protein
Assay: apparent KD of MS2 coat protein; designed switch direction (-1 OFF switch, 1 ON switch): -1; higher = weaker reporter binding
In short: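 The apparent KD reported per design is the median over clusters of curve fits to normalised cluster fluorescence. The RNA switches were transcribed on Illumina chips by stalled E. coli RNA polymerase. SNAP-549-labelled MS2 coat protein was titrated from 0.7 or 1.5 nM, doubling up to 3 µM, in Tris-HCl pH 7.5 buffer containing KCl, MgCl2, BSA, DTT, tRNA and Tween-20, with no input, 200 uM small-molecule ligand, or an oligonucleotide input.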

[1] = input ligand: microRNA oligo, concentration not stated
[2] = Eterna round: R95, input ligand: FMN 200 uM
[3] = Eterna round: R95, input ligand: microRNA oligo, concentration not stated
[4] = Eterna round: R95, input ligand: none

| Sequence | apparent KD of MS2 coat protein (input ligand: FMN 200 uM) | apparent KD of MS2 coat protein (input ligand: none) | apparent KD of MS2 coat protein [3] | further results |
| --- | --- | --- | --- | --- |
| CUGCUCCGUGUAGGAUAUGCGCGCAACCAACGCGCAGAAGGACAUGAGGAUCACCCAUGUAUGUUAUUAUCACGUGAAGCGCAA [Design 31] (Eterna round: R96, puzzle: Exclusion NG 1) | 16 nM | 13.2 nM |  | apparent KD of MS2 coat protein [1]: 12.3 nM |
| CUGGACAGAGGAUAUUGUGCUGCUGACAUGAGGAUCACCCAUGUAUGUUAACUCGGCCGUCGAGAAGGCUGACAGG [BotMod 17 - Jieux - Exclusion 5] (Eterna round: R97, puzzle: Exclusion 5) | 14.3 nM | 19.2 nM |  |  |
| CUGGGUCGUGUUAGGAUAUGCUCUAGAAAGUUAGGGUAGAAGGAACAUGAGGAUCACCCAUGUGACUUCACUAG [BmEX4 B.27] (Eterna round: R97, puzzle: Brourd's mod of Exclusion 4) | 23.6 nM | 15.4 nM |  |  |
| CUGGUCCGAGGAUAUAUUAAGUGAUACAUGAGGAUCACCCAUGUAAUUUGAUGGAAAUAAAUAGAAGGCGGACUAG [Mat - Exclusion 5 - JL mod - D44] (puzzle: Exclusion 5) |  |  | 45.9 nM | apparent KD of MS2 coat protein [2]: 34.2 nM; apparent KD of MS2 coat protein [4]: 53.4 nM |
| CUGGUCCGAGGAUAUAUUAUGUGAUACAUGAGGAUCACCCAUGUUAUAUGAUGGAUGUUAGUAGAAGGCGGACUAG [JL-ex5-3.21] (puzzle: Exclusion 5) |  |  | 57.3 nM | apparent KD of MS2 coat protein [2]: 102 nM; apparent KD of MS2 coat protein [4]: 59.9 nM |
| CUGGUGUGAGGAUAUCAGGGCGCGCCCAAGGGCACGCCAAAUGAGAAGGCACAUGAGGAUCACCCAUGUGGGAC [Erzala] (puzzle: Exclusion 4) |  |  | 31.4 nM | apparent KD of MS2 coat protein [2]: 45.6 nM; apparent KD of MS2 coat protein [4]: 35.3 nM |
| CUGUACUAAGGAUAUACAUGAGGAUCACCCAUGUCGAUGGUAGGCUGACCGUGACUCCGUAGAAGGUAGAUUCC [Eternabot (L1) Solution 77] (Eterna round: R97, puzzle: Exclusion 3) | 100 nM | 81.5 nM |  |  |
| CUGUACUGAGGAUAUACAUGAGGAUCACCCAUGUUCUUCAGCUAGGAAACUAGCAAAGGUAGAAGGCAGUACAG [Mat - Exclusion 3 - Eli Mod - D69] (Eterna round: R97, puzzle: Exclusion 3) | 784 nM | 34.3 nM |  |  |
| CUGUGCACGCUGCGGUCCUACAUGAGGAUCACCCAUGUGGUCUGGUGGCGUGGGUCACCGGACUUGGCUCGUCUUGA [salish99_S_TOV1_R5_065] (Eterna round: R97, puzzle: Sensor, turn-off variant 1) | 44.8 nM | 49.3 nM |  |  |
| CUGUUCCAUGUAGGAUAUGCAUAUUCUCAUUAUGCAGAAGGACAUGAGGAUCACCCAUGUAUGUUAUUAUUAUAUGUUACAUGU [Design 3] (Eterna round: R96, puzzle: Exclusion NG 1) | 633 nM | 64.9 nM |  | apparent KD of MS2 coat protein [1]: 47.7 nM |
| CUUAGCCUAAAAUCACGCAAGCUCUUUGCUUGUCUUAAGACAUGAGGAUCACCCAUGUCCGGGCUGAACUUAUGGAA [Qugegele] (puzzle: Sensor v3, turn-off variant 2) |  |  | 24.9 nM | apparent KD of MS2 coat protein [2]: 19.9 nM; apparent KD of MS2 coat protein [4]: 21 nM |
| CUUAGCCUAAAAUCACGCAAGCUUUCUGCUUGUCUUAAGACAUGAGGAUCACCCAUGUCCGGGCUGAACUUAUGGAA [Inve] (puzzle: Sensor v3, turn-off variant 2) |  |  | 22.5 nM | apparent KD of MS2 coat protein [2]: 18.8 nM |
| CUUAGCCUAAAAUCACGCAAGCUUUUCGCUUGUCUUAAGACAUGAGGAUCACCCAUGUCCGGGCUGAACUUAUGGAA [Esenma] (puzzle: Sensor v3, turn-off variant 2) |  |  | 19.2 nM | apparent KD of MS2 coat protein [2]: 18.3 nM; apparent KD of MS2 coat protein [4]: 18.5 nM |
| CUUAUGUAAGGAUAUGCCUGGCCGUGAGGCCAAAUUGAAUAGCAGAAGGUACAUGAGGAUCACCCAUGUACGGG [jl-ex4-4.63 ViennaUCT mod] (Eterna round: R97, puzzle: Exclusion 4) | 325 nM | 364 nM |  |  |
| CUUAUGUCAGGAUAUUAGUAGUAAAUGAAUAAAAUUAUUACUGAGAAGGGACAUGAGGAUCACCCAUGUUCCUC [Mat - Exclusion 4 - Eli Mod - D4] (Eterna round: R97, puzzle: Exclusion 4) | 149 nM | 19.6 nM |  |  |
| CUUAUGUGAGGAUAUGCCUGGCCGUGAGGCCAAAUUGAAUUGCAGAAGGCACAUGAGGAUCACCCAUGUGCGGG [jl-ex4-4.66 ViennaUCT mod] (Eterna round: R97, puzzle: Exclusion 4) | 201 nM | 50.2 nM |  |  |

| Sequence | apparent KD of MS2 coat protein (input ligand: FMN 200 uM) | apparent KD of MS2 coat protein (input ligand: none) | apparent KD of MS2 coat protein [3] | further results |
| --- | --- | --- | --- | --- |
| CUUCGACAUGAGGAUCACCCAUGUCAGGAUAUUGUGUAUCGGGUUUUUUACGGAAAGGCGAGAAGGGAUGUGUG [LRO-Excl1-09] (puzzle: Exclusion 1) |  |  | 22 nM |  |
| CUUCGUAAUGUCAGGAUAUUUUCGAGGGCAACUCAAAAGAAGGGACAUGAGGAUCACCCAUGUGGCAACGUCAU [Eternabot (L2) Solution 83] (Eterna round: R97, puzzle: Brourd's mod of Exclusion 4) | 177 nM | 51.9 nM |  |  |
| CUUCUGUGAGGAUAUGUUAGUUCCCAGCAAAUCGCUGGGAGACAGAAGGCACAUGAGGAUCACCCAUGUGGGCG [Vexeanra] (Eterna round: R96, puzzle: Exclusion 4) | 612 nM | 64.7 nM |  | apparent KD of MS2 coat protein [1]: 49.8 nM |
| CUUGAAUAAGUGAGGAUAUACUGUUAGUAAUGAUUGUAGAAGGUACAUGAGGAUCACCCAUGUUUAUUCAUAAU [JR_BME4_Sub041] (puzzle: Brourd's mod of Exclusion 4) |  |  | 17.5 nM |  |
| CUUGUGUCAGGAUAUGCUAAGUAUUCGUUUUACGCGUCUAGGCAGAAGGGACAUGAGGAUCACCCAUGUAACGC [EX4 B.30] (Eterna round: R97, puzzle: Exclusion 4) | 172 nM | 133 nM |  |  |
| CUUGUUUAUGUAGGAUAUGCCUGGCGUGCCUUUGCAGAAGGACAUGAGGAUCACCCAUGUAGUAUGAGGCUUACCCUUGUCGCC [salish99_ExNG1_r04_120] (Eterna round: R96, puzzle: Exclusion NG 1) |  |  |  | apparent KD of MS2 coat protein [1]: 19.9 nM |
| CUUUACAAGCUAAGAUCCUACAUGAGGAUCACCCAUGUGGUCCGGUGACGUGAGUCACCGGACUUAGCUCGUCUUGC [salish99_S_TOV1_R5_094] (Eterna round: R97, puzzle: Sensor, turn-off variant 1) | 31.2 nM | 36.8 nM |  |  |
| CUUUACAAGCUAAGAUCCUACAUGAGGAUCACCCAUGUGGUCCGGUGACGUGAGUCACCGGACUUAGCUCGUCUUGG [salish99_S_TOV1_R5_095] (Eterna round: R97, puzzle: Sensor, turn-off variant 1) | 30.1 nM | 32.2 nM |  |  |
| CUUUCGUGAGGAUAUCAGUAGUAAAAAAAUAAAAUUACUACUGAGAAGGCACAUGAGGAUCACCCAUGUUCCUC [salish99_ex3_r3_097] (puzzle: Exclusion 4) |  |  | 25.7 nM |  |
| CUUUUGUGAGGAUAUCAGUAGUAAAAAAAUAAAAUUUCUACUGAGAAGGCACAUGAGGAUCACCCAUGUUCCUC [salish99_ex4_r3_026] (puzzle: Exclusion 4) |  |  | 34.5 nM |  |
| CUUUUGUGAGGAUAUCAGUAGUAAAUAAAUAAAUUAACUACUGAGAAGGCACAUGAGGAUCACCCAUGUUCCUU [Mat - Exclusion 4 - Mod of Salish - D65] (puzzle: Exclusion 4) |  |  | 13.7 nM |  |
| CUUUUGUGAGGAUAUCAGUAGUAUAAAAUUAAAAUUACUACUGAGAAGGCACAUGAGGAUCACCCAUGUUCCUC [Mat - Exclusion 4 - Mod of Salish - D75] (puzzle: Exclusion 4) |  |  | 36 nM |  |
| CUUUUGUGAGGAUAUUAGUAGUAAUUAAAUAAAAUUACUACUGAGAAGGCACAUGAGGAUCACCCAUGUUCCUC [salish99_ex4_r3_053] (puzzle: Exclusion 4) |  |  | 35.9 nM |  |
| GAAAACGCAGAGGAUAUUUCAGAUCAAAGCUGCAAAGAAGGCUGCACAUGAGGAUCACCCAUGUGGUCUUCAAU [Mat - Exclusion 6 - JL Mod - D8] (Eterna round: R97, puzzle: Exclusion 6) | 315 nM | 25.8 nM |  |  |
| GAAAAGCUAGGAUAUACGAAAAAAAAGGGUAGAAAAAAAACACAUGAGGAUCACCCAUGUAGAAGGAGCAAAAG [salish99_ex2_r3_093] (puzzle: Exclusion 2) |  |  | 51 nM | apparent KD of MS2 coat protein [2]: 102 nM; apparent KD of MS2 coat protein [4]: 48.2 nM |
| GAAAAGGUAGGAUAUACGAAAAAAAAGGGUAGAAAAAAAACACAUGAGGAUCACCCAUGUAGAAGGACCAAAAA [salish99_ex2_r3_050] (puzzle: Exclusion 2) |  |  | 45 nM | apparent KD of MS2 coat protein [2]: 98.9 nM; apparent KD of MS2 coat protein [4]: 34.2 nM |
